Drawing on patent US20130110249A1 (UNIVERSITY OF ROCHESTER, published 2013), this text covers Kd for 2 molecules.

Assay [1] has as its target T1, native Gmd of S. aureus Xen29 (Staphylococcus aureus, UniProt P0C5Z8 776-1255, limits assumed).
T1 construct: domain: glucosaminidase (Gmd) subunit of autolysin
T1 sequence (looked up): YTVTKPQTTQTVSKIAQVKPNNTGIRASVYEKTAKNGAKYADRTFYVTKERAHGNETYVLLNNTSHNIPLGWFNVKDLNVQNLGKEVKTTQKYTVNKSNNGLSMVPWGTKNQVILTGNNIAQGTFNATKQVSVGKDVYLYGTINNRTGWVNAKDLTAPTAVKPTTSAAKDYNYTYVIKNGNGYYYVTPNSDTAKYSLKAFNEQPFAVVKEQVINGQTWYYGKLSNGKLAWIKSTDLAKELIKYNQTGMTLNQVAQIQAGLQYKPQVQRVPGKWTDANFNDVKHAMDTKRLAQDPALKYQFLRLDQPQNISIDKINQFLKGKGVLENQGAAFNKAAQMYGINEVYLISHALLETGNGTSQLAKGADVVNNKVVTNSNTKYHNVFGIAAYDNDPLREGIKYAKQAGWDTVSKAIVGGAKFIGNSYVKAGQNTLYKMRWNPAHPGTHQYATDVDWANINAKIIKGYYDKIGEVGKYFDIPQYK
Nature of the assay: estimate from the dose dependence of the Xen29 growth (light scattering) assay, assuming about ten times the Kd is required.

Assay [2] addresses T2, recombinant His-glucosaminidase (His-Gmd) of Staphylococcus aureus autolysin (Staphylococcus aureus, UniProt A7X0T9 775-1254).
T2 construct: also called Gmd-His; recombinant Gmd
T2 sequence: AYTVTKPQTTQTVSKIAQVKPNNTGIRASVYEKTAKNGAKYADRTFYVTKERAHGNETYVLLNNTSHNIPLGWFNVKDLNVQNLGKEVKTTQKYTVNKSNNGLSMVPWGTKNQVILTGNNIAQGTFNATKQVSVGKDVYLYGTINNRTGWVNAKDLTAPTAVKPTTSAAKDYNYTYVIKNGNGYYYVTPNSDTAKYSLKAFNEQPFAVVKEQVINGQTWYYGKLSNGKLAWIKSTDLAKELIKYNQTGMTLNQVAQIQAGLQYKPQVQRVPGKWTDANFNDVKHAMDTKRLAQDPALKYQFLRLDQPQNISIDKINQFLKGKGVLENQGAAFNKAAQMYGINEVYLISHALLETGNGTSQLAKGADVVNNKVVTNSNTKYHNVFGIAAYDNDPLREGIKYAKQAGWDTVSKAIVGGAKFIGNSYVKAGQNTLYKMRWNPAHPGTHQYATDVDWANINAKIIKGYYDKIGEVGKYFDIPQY
Nature of the assay: method not stated; hybridomas screened by ELISA and western dot-blot. For orientation: ELISA stands for enzyme-linked immunosorbent assay.

B1: anti-Gmd monoclonal antibody 1C11 (antibody, V domains shown)
VH: QIQLVQSGPELKKPGETVKISCKASGYTFTTYGMSWVNQAPGKGLKWMGWINTYSGVPTYADDFKGRFVFSLETSASTAYLQINNLKNEDTATYFCAREEYSSGYAAWFPYWGQGTLVTVSA
VL: DIVLTQSPATLSVTPGDSVSLSCRASQSISNNLHWYQQKSHESPRLLIEYASRSISGIPSRFSGGGSGTDFTLSINSVESEDFGLYFCQQSNSWPLTFGAGTKLELK
notes: also called mAb 1C11; mouse 1C11
The term Kd denotes the constant that tells how readily two partners part at equilibrium. With B1, the Kd is about 1 nM in assay [1] and at most 1 nM in assay [2].

B2: anti-Gmd monoclonal antibody 3A8 (antibody, V domains shown)
VH: EVQLQESGGGLVQPGGSMKLSCAASGFTFSDAWMDWVRQSPEKGLEWVAEIKDKTNNHATYYAESVKGRFTISRDVSKSRVFLQMNSLRPEDTGIYYCTSGPYFDYWGQGTTLTVSS
VL: DIVMTQSHKFMSTSVGDRVSITCKASQDVSTAVAWYQQKPGQSPKLLIYWTSTRHTGVPDRFTGSGSGTDFTLTISSVQAKDLALYYCQQHYTTPYTFGGGTKLEIK
notes: also called mAb 3A8; hybridoma 3A8
Take B2: the values for the Kd in assay [1] and in assay [2] were about 1 nM and at most 1 nM, respectively.
